Assay results from US20250059273A1 (UNM RAINFOREST INNOVATIONS, published 2025).
One block for each binder: values may come before it. Ends that are not written are not given here.

Assays:
[1] = target: T1, Hu CCK-B receptor protein (human, UniProt P32239 1-447, limits assumed); test: indirect ELISA on human CCK-B receptor protein, concentration not shown
T1 construct: also called human CCK-B receptor
T1 sequence (looked up): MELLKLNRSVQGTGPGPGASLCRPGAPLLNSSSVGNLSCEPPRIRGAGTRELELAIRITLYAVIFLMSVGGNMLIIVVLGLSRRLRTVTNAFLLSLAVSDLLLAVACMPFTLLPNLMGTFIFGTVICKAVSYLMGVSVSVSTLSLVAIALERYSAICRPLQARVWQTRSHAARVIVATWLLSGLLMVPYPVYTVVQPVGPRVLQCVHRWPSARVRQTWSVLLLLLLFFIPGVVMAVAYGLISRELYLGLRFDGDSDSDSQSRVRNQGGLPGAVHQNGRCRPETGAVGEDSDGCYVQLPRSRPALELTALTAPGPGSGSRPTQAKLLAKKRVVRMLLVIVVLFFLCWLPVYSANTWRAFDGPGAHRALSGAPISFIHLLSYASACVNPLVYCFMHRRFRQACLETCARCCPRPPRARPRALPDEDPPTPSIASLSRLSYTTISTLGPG

human P2X4 peptide [2] = target: T2, human P2X4 peptide (human, UniProt Q99571 301-313); test: indirect ELISA, wells coated with human P2X4 peptide, anti-His detection
T2 construct: range 301-313; The range 301-313 is stated for rat P2X4R, with the human peptide as its 'human form'; also called human Target P2X4R peptide; thirteen amino acid extracellular peptide fragment of human P2X4 receptor
T2 peptide (looked up): RDLAGNEQRTLIK

[3] = target: human and mouse peptide targets; test: not stated (estimated affinity)
[4] = target: T3, rat P2X4R extracellular peptide (a.a. 301-313, C-RDLAGKEQRTLTK) (rat, not fully specified (N-terminus)); test: indirect ELISA titration on P2X4R peptide; legend box headed 'APPARENT Kd (nM)'
T3 construct: also called P2X4R peptide; rat P2X4 peptide
T3 peptide: RDLAGKEQRTLTK

[5] = target: T3, rat P2X4R extracellular peptide (a.a. …); test: indirect ELISA of purified scFv on rat P2X4 peptide, concentration not shown
human P2X4 peptide [6] = target: T2, human P2X4 peptide; test: indirect ELISA on human P2X4 peptide

B3: P2X4-scFv103 (scFv)
scFv: MAQVQLKESGAELVRSGASVKLSCTASGFNIKNTYMHWVKQRPEQGLEWIGRIDPASGNTKYAPKFQGKATITADTSSNTAYLQLSSLTSEDTAIYYCARFYDGYYWGQGTTLTVSSAKTTAPSGGGGSGGGGSGGGGSGGGGSAIMSASPGEKVTMTCSASSSVSYMHWYQQKSGTSPKRWIYDTSKLASGVPARFSGSGSGTSYSLTISRMEAEDAATYYCQQYSGYGTFGGGTKLEIKRADAAALEHHHHHH
Kd [4]: 978 nM

B5: humanized P2X4R scFv HC1-LC1 (scFv)
scFv: MAEVKLVESGGGLVQPGGSLRLSCATSGFTFTDYYMSWVRQPPGKALEWLGFIRNKANGYTTEYSASVKGRFTISRDNSQSILYLQMNTLRAEDSATYYCARWEGDLLYAMDYWGQGTSVTVSSGGGGSGGGGSGGGGSDIQMTQTTSSLSASLGDRVTISCSASQGISNYLNWYQQKPDGTVKLLIYYTSSLHSGVPSRFSGSGSGTDYSLTISNLEQEDIATYYCQQYSKLPWTFGGGTKLEIKRAAALEHHHHHH
notes: HC-(G4S)3-LC with C-terminal His tag, expressed in E. coli
binding result [1]: no binding
Kd (human P2X4 peptide [2]): 24 nM
binding result [5]: binds

B8: P2X4-scFv12 (scFv)
scFv: MADVKLQESGPGLVKPSQSLSLTCSVTGYSITSGYYWNWIRQFPGNKLEWMGYISYDGSNNYNPSLKNRISITRDTSKNQFFLKLNSVTTEDTATYYCARSDYDLYYYAMDYWGQGTSVTVSSAKTTPPSGGGGSGGGGSGGGGGSGGGGSDIVMTQSPATLSVTPGDRVSLSCRASQSISDYLHWYQQKSHESPRLLIKYASQSISGIPSRFSGSGSGSDFTLSINSVEPEDVGVYYCQNGHSFPLTFGSGTKLEIKRADAAALEHHHHHH
Kd [4]: 177 nM

Continued, values first:

binding result [1]: no binding
Kd (human P2X4 peptide [2]): 130 nM
Kd [3]: 130 to 190 nM
Kd [4]: 130 nM
B1: P2X4-scFv95 (parental murine anti-P2X4R scFv) (scFv)
scFv: MAEVKLVESGGGLVQPGGSLRLSCATSGFTFTDYYMSWVRQPPGKALEWLGFIRNKANGYTTEYSASVKGRFTISRDNSQSILYLQMNTLRAEDSATYYCARWEGDLLYAMDYWGQGTSVTVSSGGGGSGGGGSGGGGGSGGGGSDIQMTQTTSSLSASLGDRVTISCSASQGISNYLNWYQQKPDGTVKLLIYYTSSLHSGVPSRFSGSGSGTDYSLTISNLEPEDIATYYCQQYSKLPWTFGGGTKLEIKRADAAALEHHHHHH
notes: also called mscFv95; clone 95

binding result [1]: no binding
Kd (human P2X4 peptide [2]): 2.3 nM
binding result [5]: binds
fold affinity enhancement over parental mscFv95 (human P2X4 peptide [6]): > 50 fold
fold affinity improvement over parental mscFv95 (human P2X4 peptide [6]): > 10 fold
B2: humanized hP2X4R scFv HC3-LC3 (scFv)
scFv: MAEVQLVESGGGLVQPGGSLRLSCATSGFTFTDYYMHWVRQAPGKGLEWVGFIRNKANGYTTEYSASVKGRFTISRDNSKNTLYLQMNSLRAEDTAVYYCARWEGDLLYAMDYWGQGTLVTVSSGGGGSGGGGSGGGGSDIQMTQSPSSLSASVGDRVTITCRASQGISNYLNWYQQKPGKAPKLLIYYTSSLHSGVPSRFSGSGSGTDFTLTISSLQPEDFAYYYCQQYSKLPWTFGGGTKVEIKRAAALEHHHHHH
notes: HC-(G4S)3-LC with C-terminal His tag; also called hP2X4R HC3-LC3 scFv; HC3 LC3 hP2X4R scFv

binding result [1]: no binding
Kd (human P2X4 peptide [2]): 12 nM
binding result [5]: binds
fold affinity improvement over parental mscFv95 (human P2X4 peptide [6]): > 10 fold
B4: humanized P2X4R scFv HC2-LC1 (scFv)
scFv: MAQVQLQESGPGLVKPSQTLSLTCTTSGFTFTDYYMSWVRQAPGKGLEWIGFIRNKANGYTTEYSASVKGRFTISRDNSKNQFSLRLSSVTAADTAVYYCARWEGDLLYAMDYWGQGTTVTVSSGGGGSGGGGSGGGGSDIQMTQTTSSLSASLGDRVTISCSASQGISNYLNWYQQKPDGTVKLLIYYTSSLHSGVPSRFSGSGSGTDYSLTISNLEQEDIATYYCQQYSKLPWTFGGGTKLEIKRAAALEHHHHHH
notes: as for B5

binding result [1]: no binding
Kd (human P2X4 peptide [2]): 4.7 nM
binding result [5]: binds
fold affinity improvement over parental mscFv95 (human P2X4 peptide [6]): > 10 fold
B6: humanized P2X4R scFv HC3-LC1 (scFv)
scFv: MAEVQLVESGGGLVQPGGSLRLSCATSGFTFTDYYMHWVRQAPGKGLEWVGFIRNKANGYTTEYSASVKGRFTISRDNSKNTLYLQMNSLRAEDTAVYYCARWEGDLLYAMDYWGQGTLVTVSSGGGGSGGGGSGGGGSDIQMTQTTSSLSASLGDRVTISCSASQGISNYLNWYQQKPDGTVKLLIYYTSSLHSGVPSRFSGSGSGTDYSLTISNLEQEDIATYYCQQYSKLPWTFGGGTKLEIKRAAALEHHHHHH
notes: as for B5

binding result [1]: no binding
Kd (human P2X4 peptide [2]): 29 nM
binding result [5]: binds
B7: humanized P2X4R scFv HC2-LC3 (scFv)
scFv: MAQVQLQESGPGLVKPSQTLSLTCTTSGFTFTDYYMSWVRQAPGKGLEWIGFIRNKANGYTTEYSASVKGRFTISRDNSKNQFSLRLSSVTAADTAVYYCARWEGDLLYAMDYWGQGTTVTVSSGGGGSGGGGSGGGGSDIQMTQSPSSLSASVGDRVTITCRASQGISNYLNWYQQKPGKAPKLLIYYTSSLHSGVPSRFSGSGSGTDFTLTISSLQPEDFAYYYCQQYSKLPWTFGGGTKVEIKRAAALEHHHHHH
notes: HC-(G4S)3-LC with C-terminal His tag
